# Laboratory results taken from the supplement of paper PMC10567573.
# B1: HESX1 (parent)
# chain: HVPNPPSGISFPSVVDHPMPEERA
# Variants of: B1
# Assay: protein stability index of a GFP-peptide fusion (GPS, HEK-293T) (PSI 1-6); higher = more stable
# Conditions: c terminus: a fixed tail appended
# 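Further: lentivirally expressed fusions sorted by FACS into six bins by GFP to DsRed ratio, PSI derived from sequencing read proportions per bin multiplied by bin number.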
row,Variant,protein stability index
1,HVPNPMSGISFPSVVDHPMPEERA,2.63
2,HVPNPASGISFPSVVDHPMPEERA,2.34
3,HVPNPVSGISFPSVVDHPMPEERA,2.11
4,HVPNPHSGISFPSVVDHPMPEERA,1.83
5,HVPNPDSGISFPSVVDHPMPEERA,2.56
6,HVPNPESGISFPSVVDHPMPEERA,2.98
7,HVPNPFSGISFPSVVDHPMPEERA,1.59
8,HVINPPSGISFPSVVDHPMPEERA,3.96
9,HVLNPPSGISFPSVVDHPMPEERA,3.88
10,HVGNPPSGISFPSVVDHPMPEERA,4.01
11,HVWNPPSGISFPSVVDHPMPEERA,2.94
12,HVPNPPSGIKFPSVVDHPMPEERA,2.38
13,HVPNPPSGIYFPSVVDHPMPEERA,2.18
14,HVPNPPSGIAFPSVVDHPMPEERA,2.79
15,HVPNPPSGIVFPSVVDHPMPEERA,2.58
16,HVPNPPSGICFPSVVDHPMPEERA,2.19
17,HVPNPPSGIMFPSVVDHPMPEERA,2.56
18,HVPNPPSGINFPSVVDHPMPEERA,3.5
19,HVPNPPSGIPFPSVVDHPMPEERA,2.29
20,HVPNPPSGILFPSVVDHPMPEERA,2.38
21,HVPNPPSGIWFPSVVDHPMPEERA,1.97
22,HVPKPPSGISFPSVVDHPMPEERA,3.76
23,HVPVPPSGISFPSVVDHPMPEERA,2.71
24,HVPTPPSGISFPSVVDHPMPEERA,2.22

row,Variant,protein stability index
1,HVPIPPSGISFPSVVDHPMPEERA,3.54
2,HVPMPPSGISFPSVVDHPMPEERA,3.04
3,HVPAPPSGISFPSVVDHPMPEERA,1.65
4,HVPLPPSGISFPSVVDHPMPEERA,4.27
5,HVPWPPSGISFPSVVDHPMPEERA,3.44
6,HVPNSPSGISFPSVVDHPMPEERA,3.76
7,HVPNDPSGISFPSVVDHPMPEERA,3.96
8,HVPNTPSGISFPSVVDHPMPEERA,2.74
9,HVPNCPSGISFPSVVDHPMPEERA,2.45
10,HVPNHPSGISFPSVVDHPMPEERA,2.6
11,HVPNFPSGISFPSVVDHPMPEERA,2.38
12,HVPNPPSGVSFPSVVDHPMPEERA,2.94
13,HVPNPPSGMSFPSVVDHPMPEERA,2.5
14,HVPNPPSGKSFPSVVDHPMPEERA,3.53
15,HVPNPPSGSSFPSVVDHPMPEERA,3.33
16,HVPNPPSGESFPSVVDHPMPEERA,3.58
17,HVPNPPSGFSFPSVVDHPMPEERA,3.22
18,HVPNPPSGPSFPSVVDHPMPEERA,2.23
19,HVPNPPSGTSFPSVVDHPMPEERA,3.8
20,HVPNPPSGGSFPSVVDHPMPEERA,3.59
21,HVPNPPSGLSFPSVVDHPMPEERA,2.14
22,HVPNPPSGWSFPSVVDHPMPEERA,2.37
23,HEPNPPSGISFPSVVDHPMPEERA,5.7
24,HGPNPPSGISFPSVVDHPMPEERA,5.17

row,Variant,protein stability index
1,HLPNPPSGISFPSVVDHPMPEERA,5
2,HVPNPPSGISFPSVVDHPMPEEIA,2.58
3,HVPNPPSGISFPSVVDHPMPEELA,2.1
4,HVPNPPSGISFPSVVDHPMPEEYA,2.34
5,HVPNPPSGISFPSVVDHPMPEECA,2.56
6,HVPNPPSGISFPSVVDHPMPEEQA,2.21
7,HVPNPPSGISFPSVVDHPMPEEHA,2.99
8,HVPNPPNGISFPSVVDHPMPEERA,2.99
9,HVPNPPKGISFPSVVDHPMPEERA,2.93
10,HVPNPPTGISFPSVVDHPMPEERA,2.75
11,HVPNPPLGISFPSVVDHPMPEERA,3.61
12,HVPNPPAGISFPSVVDHPMPEERA,3.88
13,HVPNPPEGISFPSVVDHPMPEERA,3.57
14,HVPNPPWGISFPSVVDHPMPEERA,1.71
15,HVPNPPFGISFPSVVDHPMPEERA,2.15
16,HVPNPPMGISFPSVVDHPMPEERA,2.74
17,HVPNPPRGISFPSVVDHPMPEERA,2.9
18,HVPNPPHGISFPSVVDHPMPEERA,2.54
19,HVPNPPSGISFPSVVDHPEPEERA,3.69
20,HVPNPPSGISFPSVVDHPVPEERA,2.44
21,HVPNPPSGISFPSVVDHPTPEERA,2.59
22,HVPNPPSGISFPSVVDHPGPEERA,2.44
23,HVPNPPSGISFPSVVDHPRPEERA,2.83
24,HVPNPPSGISFPSVVDHPSPEERA,3.18

row,Variant,protein stability index
1,HVPNPPSGISFPSRVDHPMPEERA,3.75
2,HVPNPPSGISFPSLVDHPMPEERA,3.9
3,HVPNPPSGISFPSFVDHPMPEERA,3.57
4,HVPNPPSGISFPSEVDHPMPEERA,4.36
5,HVPNPPSGISFPSKVDHPMPEERA,3.45
6,HVPNPPSGISFPSHVDHPMPEERA,3.86
7,HVPNPPSGISFPSTVDHPMPEERA,3.49
8,HVPNPPSCISFPSVVDHPMPEERA,2.36
9,HVPNPPSLISFPSVVDHPMPEERA,3.17
10,HVPNPPSPISFPSVVDHPMPEERA,4.09
11,HVPNPPSGISFPSVVDDPMPEERA,3.28
12,HVPNPPSGISFPSVVDNPMPEERA,2.8
13,HVPNPPSGISFPSVVDWPMPEERA,2.19
14,HVPNPPSGISFPSVVDRPMPEERA,2.77
15,HVPNPPSGISFPSVVDEPMPEERA,3.29
16,HVPNPPSGISFPSVVDKPMPEERA,2.24
17,HVPNPPSGISFPSVVDPPMPEERA,2.11
18,HVPNPPSGISFPSVVPHPMPEERA,2.37
19,HVPNPPSGISFPSVVQHPMPEERA,2.51
20,HVPNPPSGISFPSVVVHPMPEERA,2.35
21,HVPNPPSGISFPSVVMHPMPEERA,2.19
22,HVPNPPSGISFPSVVYHPMPEERA,2.57
